Reference: publication PMC3177193 (Nucleic Acids Research, 2011)
One block for each binder: values may come before it.

Assays:
[1] = biological target: T1, Arabidopsis SERRATE core (SE core, residues 194-543), hexahistidine-tagged (Arabidopsis thaliana, UniProt Q9ZVD0 194-543); test: pull-down
T1 sequence (looked up): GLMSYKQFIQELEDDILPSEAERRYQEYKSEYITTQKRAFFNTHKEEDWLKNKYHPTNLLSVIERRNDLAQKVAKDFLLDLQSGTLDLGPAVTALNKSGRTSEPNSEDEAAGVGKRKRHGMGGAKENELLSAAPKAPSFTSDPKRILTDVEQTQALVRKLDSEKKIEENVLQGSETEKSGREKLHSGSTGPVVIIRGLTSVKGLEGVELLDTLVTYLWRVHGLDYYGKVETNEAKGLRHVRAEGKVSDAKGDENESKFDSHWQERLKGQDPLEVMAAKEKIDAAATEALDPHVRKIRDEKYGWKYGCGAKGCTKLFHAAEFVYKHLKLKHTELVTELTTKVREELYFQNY

[2] = biological target: T2, GST-fused SE Middle domain (SE-Mid, residues 248-470) (Arabidopsis thaliana, UniProt Q9ZVD0 248-470); test: pull-down
T2 sequence (looked up): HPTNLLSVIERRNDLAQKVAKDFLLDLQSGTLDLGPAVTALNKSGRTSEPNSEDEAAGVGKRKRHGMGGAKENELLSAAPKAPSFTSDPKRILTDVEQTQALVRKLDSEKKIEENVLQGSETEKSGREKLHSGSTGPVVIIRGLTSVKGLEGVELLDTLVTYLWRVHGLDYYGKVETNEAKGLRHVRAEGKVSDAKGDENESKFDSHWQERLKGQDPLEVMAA

binding result [1]: binds
B1: GST-fused HYL1 RBD1+2 (residues 15-172) (domain or fragment, Arabidopsis thaliana, UniProt O04492 15-172, looked up)
chain: VFKSRLQEYAQKYKLPTPVYEIVKEGPSHKSLFQSTVILDGVRYNSLPGFFNRKAAEQSAAEVALRELAKSSELSQCVSQPVHETGLCKNLLQEYAQKMNYAIPLYQCQKVETLGRVTQFTCTVEIGGIKYTGAATRTKKDAEISAGRTALLAIQSDT

binding result [1]: binds
B2: GST-fused HYL1 RBD2 (residues 100-172) (domain or fragment, Arabidopsis thaliana, UniProt O04492 100-172, looked up)
chain: GLCKNLLQEYAQKMNYAIPLYQCQKVETLGRVTQFTCTVEIGGIKYTGAATRTKKDAEISAGRTALLAIQSDT

binding result [2]: binds
B3: Non-tagged HYL1 RBD2 (residues 100-172) (domain or fragment, Arabidopsis thaliana, UniProt O04492 100-172, looked up)
chain: B2 chain
